Molecular target: wild type human norepinephrine transporter (human) (UniProt P23975)
Assay: cell-based or functional assay

human norepinephrine transporter A457P mutant (from UniProt P23975 1-617)
[3H]NE uptake on cotransfection (% of wt alone): 59

Source: patent US20030170875A1
